What was measured:
[1] = biological target: T1, recombinant rat NRP-1 protein (rat, UniProt Q9QWJ9 22-855); experiment: SPR
T1 sequence (looked up): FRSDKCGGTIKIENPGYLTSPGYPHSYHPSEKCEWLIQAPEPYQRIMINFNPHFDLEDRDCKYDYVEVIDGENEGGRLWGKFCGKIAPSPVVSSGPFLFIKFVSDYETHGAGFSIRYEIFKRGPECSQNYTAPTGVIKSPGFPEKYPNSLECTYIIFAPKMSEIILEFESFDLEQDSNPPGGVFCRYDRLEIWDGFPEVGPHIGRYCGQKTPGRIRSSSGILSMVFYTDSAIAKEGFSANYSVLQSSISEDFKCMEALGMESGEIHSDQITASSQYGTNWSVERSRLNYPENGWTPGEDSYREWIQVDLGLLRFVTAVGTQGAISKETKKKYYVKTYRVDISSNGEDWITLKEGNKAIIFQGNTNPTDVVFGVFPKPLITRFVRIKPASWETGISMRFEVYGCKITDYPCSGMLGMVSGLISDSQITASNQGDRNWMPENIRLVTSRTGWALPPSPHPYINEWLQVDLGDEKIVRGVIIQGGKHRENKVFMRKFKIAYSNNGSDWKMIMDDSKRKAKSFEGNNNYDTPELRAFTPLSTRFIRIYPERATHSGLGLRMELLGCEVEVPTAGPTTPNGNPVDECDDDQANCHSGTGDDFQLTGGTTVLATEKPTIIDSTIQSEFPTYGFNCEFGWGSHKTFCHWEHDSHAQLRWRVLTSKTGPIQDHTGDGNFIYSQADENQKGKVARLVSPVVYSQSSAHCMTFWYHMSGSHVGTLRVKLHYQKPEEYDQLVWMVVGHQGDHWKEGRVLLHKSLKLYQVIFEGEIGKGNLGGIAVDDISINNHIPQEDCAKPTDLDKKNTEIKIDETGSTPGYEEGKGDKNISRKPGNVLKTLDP

[2] = biological target: T2, recombinant human NRP-1 protein (human, UniProt O14786 22-856); experiment: SPR
T2 sequence (looked up): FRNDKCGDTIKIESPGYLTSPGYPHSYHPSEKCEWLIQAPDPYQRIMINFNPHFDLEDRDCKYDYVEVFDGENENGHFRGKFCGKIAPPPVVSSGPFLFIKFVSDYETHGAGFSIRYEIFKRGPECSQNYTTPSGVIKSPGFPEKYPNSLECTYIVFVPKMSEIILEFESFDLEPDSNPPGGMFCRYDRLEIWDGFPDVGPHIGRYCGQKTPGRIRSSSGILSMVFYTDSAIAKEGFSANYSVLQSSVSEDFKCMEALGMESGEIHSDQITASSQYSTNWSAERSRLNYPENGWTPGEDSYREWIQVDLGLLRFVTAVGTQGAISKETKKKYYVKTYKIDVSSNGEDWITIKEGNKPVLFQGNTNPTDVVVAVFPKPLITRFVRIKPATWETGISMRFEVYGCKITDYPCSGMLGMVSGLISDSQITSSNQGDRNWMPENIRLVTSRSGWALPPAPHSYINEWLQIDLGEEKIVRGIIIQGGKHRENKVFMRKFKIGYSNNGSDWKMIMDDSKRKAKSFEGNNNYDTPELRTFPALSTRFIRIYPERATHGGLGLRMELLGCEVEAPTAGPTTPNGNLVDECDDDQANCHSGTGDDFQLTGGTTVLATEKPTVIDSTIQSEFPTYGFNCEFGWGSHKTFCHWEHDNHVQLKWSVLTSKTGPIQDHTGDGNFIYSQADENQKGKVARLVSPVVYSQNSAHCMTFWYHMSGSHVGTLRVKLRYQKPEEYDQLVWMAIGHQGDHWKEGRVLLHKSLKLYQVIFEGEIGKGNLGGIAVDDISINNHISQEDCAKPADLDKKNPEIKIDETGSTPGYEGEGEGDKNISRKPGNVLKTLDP

Kd [1]: 8.7 µM | Kd [2]: 500 nM
Binder: KDKPPR [KDKPPR peptide]

Source: PMC7673487 (International Journal of Nanomedicine, 2020)
